From patent US20180346565A1 (AbbVie / Abbott, published 2018)

Molecular target: T1, DLL3 purified protein (human, UniProt Q9NYJ7 27-492, limits assumed)
T1 construct: also called purified DLL3; immobilized human DLL3
T1 sequence (looked up): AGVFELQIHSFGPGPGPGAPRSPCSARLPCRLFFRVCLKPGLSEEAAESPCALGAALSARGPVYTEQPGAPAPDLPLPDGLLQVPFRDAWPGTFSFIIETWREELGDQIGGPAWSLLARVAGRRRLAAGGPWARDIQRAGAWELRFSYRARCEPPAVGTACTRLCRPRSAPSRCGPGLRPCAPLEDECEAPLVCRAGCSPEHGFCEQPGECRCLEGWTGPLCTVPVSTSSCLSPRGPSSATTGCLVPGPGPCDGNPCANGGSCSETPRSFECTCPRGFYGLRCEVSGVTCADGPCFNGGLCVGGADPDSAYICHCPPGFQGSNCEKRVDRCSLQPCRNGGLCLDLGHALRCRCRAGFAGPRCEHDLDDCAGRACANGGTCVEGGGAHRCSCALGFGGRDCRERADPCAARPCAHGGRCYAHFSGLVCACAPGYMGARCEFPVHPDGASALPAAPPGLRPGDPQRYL
Assay: ELISA, plate coated with 1 ug/ml purified DLL3, serially diluted antibody, detection with HRP-conjugated anti-human IgG1 reporter mAb, TMB, OD450
Excerpt: Site-specific anti-DLL3 antibodies fabricated as set forth in the previous Examples were screened by an ELISA assay to determine whether they bound to DLL3 purified protein. The parental native antibody was used as a control and run alongside the site-specific anti-DLL3 antibody. Binding of the antibodies to DLL3 was detected with a monoclonal antibody (mAb) reporter antibody conjugated to horseradish peroxidase (HRP), (Southern Biotech, Cat. No. SB9052-05), which binds to an epitope present on human IgG1 molecules. HRP reacts with its substrate tetramethyl benzidine (TMB). The amount of […] TMB is directly proportional to the amount of test antibody bound to DLL3.
ELISA plates were coated with 1 μg/ml purified DLL3 in PBS and incubated overnight at 4° C. Excess protein was removed by washing and the wells were blocked with 2% (w/v) BSA in PBS with 0.05% tween 20 (PBST), 200 μL/well for 1 hour at room temperature. After washing, 100 μL/well serially diluted antibody or ADC were added in PBST for 1 hour at room temperature. The plates were washed again and 0.5 ug/ml of 100 μL/well of the appropriate reporter antibody was added in PBST for 1 hour at room temperature. […] The samples were then analyzed by spectrophotometer at OD 450.

EC50 (read off the curve): ~10 ng/mL
B1: hSC16.56 (antibody, human IgG1, kappa, V domains shown)
VH: QVQLVQSGAEVKKPGASVKVSCKASGYTFTNYGMNWVRQAPGQGLEWMGWINTYTGEPTYADDFKGRVTMTTDTSTSTAYMELRSLRSDDTAVYYCARIGDSSPSDYWGQGTLVTVSS
VL: EIVMTQSPATLSVSPGERATLSCKASQSVSNDVVWYQQKPGQAPRLLIYYASNRYTGIPARFSGSGSGTEFTLTISSLQSEDFAVYYCQQDYTSPWTFGQGTKLEIKR
notes: Native human IgG1/kappa; also called humanized SC16.56; humanized anti-DLL3 antibody hSC16.56
